± gives the standard deviation of the averaged measurements.
System: ATP
Experiment: switch fluorescence ratio, 500 uM ATP over buffer (Cy3 cluster intensity, sum of 5 cycles each) (fold (ratio)); higher = stronger signal-on switching upon ATP binding; sequences stand for … in TCGTCGGCAGCGTCAGATGTGTATAAGAGACAGTTTTTTTTTTTTTTTTTTTTTTTTT…TC
Settings: aptamer strand: ATP DNA aptamer (quencher-CACCTGGGGGAGTATTGCGGAGGAAGG + anchor), 100 nM annealed; ATP concentration: 500 uM
Outline: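 Between each of five buffer/ATP cycles, the flow-cell was stripped with NaOH and re-annealed. Each cycle imaged Cy3-labelled switching-strand clusters, annealed to 100 nM quencher-labelled ATP aptamer on a modified Illumina MiSeq flow-cell, first in selection buffer and then after 15 min with 500 uM ATP at 22 °C. The fluorescence ratio is summed target-cycle over summed buffer-cycle Cy3 intensity per cluster, averaged per switch-domain sequence, with clusters outside 100-1000 RFU excluded.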
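Further: ATP exposure 15 min at 22 °C before imaging.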

Sequence | switch fluorescence ratio
CCTGTGTCCG | 1.12 ± 0.052
TATCACACTG | 1.09 ± 0.12
ATTCTTCGC | 1.06 ± 0.011
AGGGCCAAGT | 0.997 ± 0.011
ATGCGATGGC | 1.02 ± 0.0072
GCCTCGGGGG | 0.953 ± 0.021
CGTGGGGCAC | 1.01 ± 0.024
GGGTATCGGG | 0.98857 ± 0.00067
CACATAGTTT | 1.03 ± 0.023
TATCAAAGGT | 1.01 ± 0.025
GCTCAACTAA | 1.02 ± 0.02
AAGTCACGGT | 1.09 ± 0.02
TGGGAAATAC | 2.11 ± 0.12
TCAGGGGTCG | 1.05 ± 0.056
GGGTTTTCTG | 0.945 ± 0.017
CCTATTTTTT | 1.01 ± 0.034
TTACCTCCGT | 2.19 ± 0.14
GGGAGGGACT | 1.03 ± 0.051
AGGGGAGGTG | 1.09 ± 0.05
TTACAAGGAC | 1.049 ± 0.0089
TTTATTAGCA | 0.968 ± 0.05
ACGGGTTCGT | 1.01 ± 0.012
AAAATTCAGG | 1.02 ± 0.011

Sequence | switch fluorescence ratio
GCTGGTGCAC | 1.01 ± 0.026
GACGTTTTGT | 0.96221 ± 0.00058
TGGGATTTTG | 1.014 ± 0.0028
ATGGTAGTGG | 0.995 ± 0.026
GGTTCCGGTA | 0.9998 ± 0.00095
GGAATGGGGA | 1 ± 0.037
GATATTTGGT | 0.989 ± 0.048
CAAGCATAGG | 1.07 ± 0.072
ATTTTGCGGA | 0.968 ± 0.013
GGCCTCAAAT | 1.01 ± 0.037
GGGGCTTGGA | 1 ± 0.017
GGATAATAAG | 1.01 ± 0.029
GGTGGGGGG | 0.977 ± 0.012
AGGTCATGTA | 1.01 ± 0.026
GCAGAATATT | 0.998 ± 0.029
CGTGACGGTA | 1.042 ± 0.0014
ACATTTGTGG | 1.01 ± 0.021
TTGGGCAGCA | 0.99411 ± 0.00084
TATCTATTTT | 0.964 ± 0.011
AAGATTTGAG | 0.992 ± 0.01
TGTCGAGGGG | 0.981 ± 0.017
GATGGGTAAA | 0.992 ± 0.029
TATCTTTTCT | 0.968 ± 0.014

Sequence | switch fluorescence ratio
TAATTAGTGT | 0.979 ± 0.013
CGAGGATAGG | 0.999 ± 0.035
GTCGTGTCTG | 1.004 ± 0.0065
GGTCCAGGTC | 1.12 ± 0.057
TCTGTAGTTG | 0.997 ± 0.04
CGCGTAATAT | 2.07 ± 0.069
GAATTCGATC | 1.02 ± 0.029
GCTATGTGTA | 0.9748 ± 0.0051
CCGTAGAGTT | 1.29 ± 0.031
ACGACTAGGT | 1.102 ± 0.008
GATAATATGG | 0.9814 ± 0.0094
CGCGAGCGTT | 0.995 ± 0.049
ACATACGCAA | 4.63 ± 0.56
TGGTTGGATG | 1.003 ± 0.006
TCAAAGGTTC | 1.13 ± 0.16
GAGGCTAGTT | 0.9936 ± 0.0047
ATTGGGTCTA | 0.978 ± 0.021
GGTCCAATTA | 0.977 ± 0.015
CGTTGTCATC | 1.01 ± 0.06
TGTAGGGCGA | 0.99 ± 0.034
TAAGGAGGAT | 1 ± 0.017
TACCAGCCGA | 1.06 ± 0.043
TTCTAAAGTA | 0.994 ± 0.014

Sequence | switch fluorescence ratio
TGGGTTCCCG | 0.986 ± 0.013
TTAAAAGCAG | 1.016 ± 0.0045
TTAGATCGCC | 0.969 ± 0.027
GGGGGGGACG | 0.962 ± 0.055
GCAACGGGTT | 1.16 ± 0.21
GGGGGTAGCA | 1.05 ± 0.077
CGGAAACATT | 1.04 ± 0.039
GTGGAGTAAG | 1.01 ± 0.023
AGTTGTGGAG | 0.986 ± 0.018
GTTACGGGAC | 1.24 ± 0.015
GTTCTTGATG | 0.967 ± 0.015
GGGGTTTATA | 0.997 ± 0.026
TAGCTAGTAT | 1.63 ± 0.95
GGACAAAACT | 1.08 ± 0.12
GAGGGAACAG | 1.01 ± 0.013
TGGGACGGGG | 0.984 ± 0.025
ATCACATTGG | 1.02 ± 0.071
ATGTGAGTTA | 0.951 ± 0.039
GTTAGGTTGG | 0.9811 ± 0.007
GGGGGTAACT | 1 ± 0.034
CGCTACGTGT | 1.02 ± 0.038
TCTTGCCGCT | 1.01 ± 0.061
GGTAGTAAGA | 1.01 ± 0.047

Sequence | switch fluorescence ratio
GAATAACTAG | 0.9776 ± 0.0088
GACACCAAAT | 1.039 ± 0.0035
TACATAGGTT | 1.048 ± 0.006
TTTTTTGTCT | 0.993 ± 0.021
GACATGTAAA | 1.048 ± 0.0023
CAACATCACG | 1.52 ± 0.057
AGAGGGTCTC | 0.973 ± 0.058
TTGGGGGAGT | 1.03 ± 0.022
AGAACGTCTA | 1 ± 0.054
AGCTCGGTCG | 0.963 ± 0.017
AGTTCCGAGG | 1.12 ± 0.14
GTGTAAGATG | 1.0023 ± 0.0005
AGGAAGTTAG | 0.961 ± 0.022
GGCGTCTTTG | 1.019 ± 0.0091
TGATGGGTAT | 1 ± 0.028
CGAGAAATGG | 1.07 ± 0.055
ATTCCTCGAC | 1.67 ± 0.11
CCGGGGGGCT | 1.09 ± 0.043
ATAATCGGCA | 1.01 ± 0.054
TAGGGGTTCT | 1.01 ± 0.061
AGAGCATTTG | 1.01 ± 0.058
GCGCCCATCT | 1.02 ± 0.017
TTGGCACGGG | 1.03 ± 0.022

Sequence | switch fluorescence ratio
TGGGAAAAGG | 1.16 ± 0.31
TTAGGCGGCA | 0.974 ± 0.034
TCATTTATTG | 1.02 ± 0.024
GCCGGATTCG | 1.02 ± 0.013
CCGCTATTGT | 2.77 ± 0.4
GGGGGATAGC | 0.991 ± 0.023
TTTTTGTTGA | 0.991 ± 0.026
TGATGGCCCG | 1.03 ± 0.092
ATTTACCGAA | 1.05 ± 0.019
TTATGTCAGA | 0.987 ± 0.034
TTGGATCCGC | 1.32 ± 0.45
TAGGTGGACT | 1.01 ± 0.042
TTTCAAAAAC | 1.03 ± 0.037
TGATTGGGGG | 0.989 ± 0.031
GGTAGGGTGG | 1.02 ± 0.048
TTTTGACCGT | 0.973 ± 0.037
GCGAGGGCAA | 1.72 ± 0.052
GCTGGGAGGA | 1.02 ± 0.04
CAACTCCGGA | 1.204 ± 0.0066
AGAGGATTTT | 1 ± 0.015
TGGAAAGTGG | 0.9818 ± 0.005
ATAGGAATGG | 1.02 ± 0.023
TCGGGTGGGG | 1.01 ± 0.014

Sequence | switch fluorescence ratio
ATGCATTAAT | 0.997 ± 0.015
AGGGATCGTC | 0.987 ± 0.014
ACCGTATGGC | 1.02 ± 0.023
TTCAGCCCGG | 0.986 ± 0.056
TTTTATCATG | 0.9758 ± 0.0028
GGGCTGTGTG | 1.02 ± 0.035
GATTAGGGGG | 1.02 ± 0.043
AAAGATTTCG | 0.971 ± 0.027
CATAGGAGAC | 1 ± 0.017
CAAATCGTCG | 0.957 ± 0.022
CCTGGGGTAT | 1.09 ± 0.05
CAGGGGGATT | 1.03 ± 0.042
AGGGGAAGTG | 0.955 ± 0.07
GAGACGCTTA | 1.069 ± 0.0064
CGGATGGATC | 1.02 ± 0.041
GGGGTAAGCT | 0.998 ± 0.023
CATAAGTGGG | 0.973 ± 0.03
TATTATGGCA | 1.02 ± 0.08
TACCGGGCAC | 1.11 ± 0.03
